Experiment: yeast display, Sf9 membrane polyspecificity reagent, FACS + sequencing; frameworks hold sequencing errors
Procedure, shortened: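 Galactose induction of a Saccharomyces cerevisiae BJ5465 synthetic nanobody display library ran 36–48 hours. The cells were then stained for 1 hour at 4 °C with 10% biotinylated, detergent-solubilized Sf9 membrane reagent, pulled down on streptavidin microbeads and FACS-sorted into low and high (top ~1%) gates on expression and reagent-binding fluorescence. Labels for polyreactivity follow the gate of origin.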

Sequence	polyreactivity (PSR sort gate)
QVQLVESGGGVVQAGGSLRLSCAASGSTFRPYAMGWYRQAPGKERELVAAITFNGDTYADSVKGRFTISRDNAKNTVYLQMNSLKPEDTAVYYCAARNWYYYLRPWTSVGGYYWGQGTQVNVSS	high polyreactivity
QDQLVESGGGLVQAGGSLRLSCAASGFNFDSYAMRWYIQAPGKERELVAAMSWSGSSTYSADSVKGRFTISRDNAKNTGYLQMNSLKPEDTAVYYCAALVYPYWGGSMYYWGQGTQVTVSS	high polyreactivity
QVQLLETGRGLFQEGGSLRLSCAASGGTFGAYVMGWYRQAPGKERELVAAISRSGTRTYYADSVKRRFTISRDNEKNTVYLQMNWLKPEDTAVYYCNAVGYTNRYDDWGQGTQVTVSS	high polyreactivity
QVQLVETGGGLVQAGGSLRLSCAASGFTFWYNDMGWYRQPPGKEREFVAAINSGGSTNDADSVKGRFTISRDNAKNTVYLQMNSLKPEDTAVYYCNADWFTPAQPWYRYFIRYDYWGQGTQVTVSS	low polyreactivity
QVQLVESGGGLVQAGGSLRLSCAATGRTFSSYAMGWYRQAPGKEREFLARISSSRGRTSYADSVKGRFTISRDNAKNTVYVQMNSLKPEDTAVYYCAARPPYRVGIVPLGRREYYWGRGTQVTVSS	high polyreactivity
QVQLVESGGALVQAGGSHRLSCAASGRTFHFNAMGWYRPATGKERELVAAITNSGGRTSYADSVKGRFTISRDNAKNTVYLQMNSMKPEDTAVYYCNVEVTYSSGKYDYWGPGTQVTVSS	low polyreactivity
QVQLVESGGGLVQAGGSLRLSCAASGFTFYTNAMGLSRQAPGKERELVAAISQRGASTYYADSVKGRFTISRDNAKNTFYLEMTSLKPEDTAVYYCAASSRTHGSYYYWGQGTQVTVSS	high polyreactivity
QVQLVESGGGLVQAGGSLRLSCAASGITLPVYGKGWYRQAPGKERELVAVIDIVGITNYADSVKGRFTISRDNAKNTVYLQMNSLKPEDTAVYYCAKRYVYIADGGEYYYWGQGTQVTVSS	low polyreactivity
QVQLVESGGGLVQAGGSLRLSCAASGSISGVYAMGWYRQAAGKDRALVAASSGGSGRTYYADSVKGRFTISRDNAKNTVYLQMISLKPEDTAVYYCAKTVLYSSYRKYDYWGQGSQVTVSS	high polyreactivity
QVQLVESGGGLVQAGGSLRLSCAASGSTFSPNAMGWYRQAPGKERELVAAITGGGSTYADSVKGRFTISRDNAKNTVYLQMNSLKPEDTAVYYFNADSYSFPYYYWGQGTQVTVSS	low polyreactivity
QDQLGDSGGGLVQAGGSLSLSCAASGFIFYRYAMGWYRQAPGKERELVAAISGRGGSTYYADSVKGRFTISRDNAKNTVYLQMNSLKPEDTAVYYCATKPRSDSYGNYDYWGQGTQVTVSS	high polyreactivity
QVQLVESGGGLVQAGGSLRLSCAASGYTFVIYAMGWYRQAPGKERELVAAITTIGGRTYYADSVKGRFTISRDNAKNTVYLQMNSLKPEDTAVYYCAADIRSNRLYDGGYWGQGTHVTVSS	low polyreactivity
QVQLVESGGGLVQAGGSLRLSCADSGRIFRDYAMGWYRQAPGKERELVAAISRSGGSTYYADSVKGRFTISRDNAKNTVYLQVNSLKPEDTAVFYCAAKYYYGGNGYWGQGTQVTVSS	low polyreactivity
QVQLVESGGGLDQAGGSLRLSCAASGGTFYYYAMGWYRQPPGKERELVAAITKNGGSTYYADSVKGRFTNSRDNAKNTVYLQMNRLKPEDTAVYSCAKATVAYGWWRYNYWGQGTQVTVSS	high polyreactivity
QVQLVESGGGLVQAGGSLRLSCAASGYTFTIYAMGWYRQAPGKERELVAAITGGGGRTYYADSVKGRFTISRDNAKNTVYLQMNSLKPEDTAVYYCAASGPIVGMNYWGQGTQVTVSS	high polyreactivity
QVQLVESGGGLVQAGGSLRLSCAASGLIFITYAMGWYIQAPGKERELVATITLRGGSTYYADSVKGRFTISRDNAKNTVYLQMNSLKPEDTAVYYCAADVGYWGRSRGYPSDDYDYWGQGTQVTVSS	low polyreactivity
QVQLVESGGGLVQAGGSLRLSCSASGNTIRYYALGWYRQAPGKERELVATITSGGRTYYADSVKGRFTISRDNAKNTVYLQMNSLKPEDTAVYYCAAGSRSDARRYYYWGQGTQVTVSS	low polyreactivity
QVQLVESGGGLVQAGGSLRLSCAASGRIFGAYAMGWYRQAPGKERELVATITKRGGSTFYADSVKGRFTISRDNAKNTVYVKMNSLKPEDTAVYYCAVVRYSPKRYWYGYWGQGTQVTVSS	high polyreactivity
QVQIVESGGGVVQAGGSLRLSCAASGYILDRNSMGWYRQAPGKERELVAVISWGGTRTYYADSVKGRFTISRDNAKNTVSLQMNSLKPVDTAVYYCNGKGWYYKYDYWGQGTQVTVSS	high polyreactivity
QVQLVESGGGLVQAGGSLRLSCAASGSIFKWNAMGWYRQAPGKERELVASITRSGGSTYYADSVKGRFTISRDNAKNTVYLQMNSLKPEDTAVYYCARSYGWYRWAGYDYWGQGTQVTVSS	high polyreactivity
QVQLVESGGGLVQAGGSLRLSCAASGSIFRSNAMGWYRQAPGKEREVVAAISSRGGSTYYADSVKGRFTISRDNAKNTVYLQMNSLKPEDTAVYFCNKARYTVISYDEYDYWGQGTQVTVSS	high polyreactivity
QVQLVESGGGLVQAGGSLRLSCAASGSIFGAYTMGWYRQAPGKERELVAAISRSGSTYYADSVKGRFTISRDNAKNTVYLQMKSLKPEDTAVYYCYGVGYSGLRRYYKYDYWGQGTQVTVSS	high polyreactivity

Sequence	polyreactivity (PSR sort gate)
QVHLVESGGGLVQAGGSLRLSCAASGLIFVKYALGWYRQAPGKEREFVAAITRSGGTTYYADSVKGRFTISRDNAKNTVYLQMNSLKPEDTAVYYCAAGVVIYFFGGGDYWGQGTQVTVSS	low polyreactivity
QVQLVESGGGLVQAGGSLRLSCAASGRTFVHYTMGWYRQAPGKERELVAAISGTGTSTYYADSVKGRFTISRDNAKNTVYLQMNSLKPEDTAVYYCARDPFFGFHIGYPRRDYWGQGTQVTVSS	low polyreactivity
QVQLVESGGGLFQAGGSLRLSCAASGSIFYYYAMGWYRQAPGKERELVAAITRSSGSTYADSVKGRFTISGDNAMYTVYVQMNSLKPEDTAVYYCATVQSDWRRNYSYYHWGQATQVTVSS	high polyreactivity
QVQLVESGGGLVQAGGSLRLSCAASGSIFTGNAMGSYRQAPGKERELVAAISSSGARTYYADSVKGRFTISRDNAKNTVNLQMNSLKPEDTAVYYCNADSYTLYGLYDYWGQGTKVTVSS	low polyreactivity
QVQHVESRGGLVQAGGSLRLSCAASGRTFQANAMGCYRQAPGKERELVAAITGRGGTTYYADSVKGRFTISRDNAKNTVYLQMNSLKPEDTAVYYCARALSGYGFWGYEYWGQGTQVTVSS	low polyreactivity
QVQLVESGGGLVQAGGSLRLSCVASGRIIPGNAMGGYRQAPGKESELVAAISYGGGSTYYADSVKGRFTISRDNAKNTVYLQMNSLKPADTAVYYCAAASSGEYGYWGQGTQVTVSS	low polyreactivity
QVQLLESGGGLVQAGGSLRLSCAASGRTFYRYAMGWYRKAPGKETELVAANSSSGGSTYYADSVKGRFTISRDNAKNTVYLQMNSLKPEDTAVYYCAAQYFLFTTPYRYAPRMGYWGQGTQVTVSS	high polyreactivity
QVQLVESGGGLVQAGGSLRLSCAASGRIFSTYVMGWYRQAPGKERELVAAIRNRGGSTYYADSVKGRFTISRDNAKNTVYLQMNSLKPEDTAVYYCAAEYSYRYRVSMDYWGQGTQVTVSS	high polyreactivity
QVQLVESGGGLVQAGGSLRLSCAASGITFVFYAMGWYRQAPGKEREFVAGITWRGGRTYYADSVKGRFTISRDNAKNTVYLQMNSLKPEDTAVYYCNARSVVLTGGDYWGQGTQVTVSS	high polyreactivity
QVQLVESGGGLVQAGGSLRLSCAASGRIFPAYVMGWYRQAPGKERELVATIDNGGCTYYADSVKGRFTISRDNAKNTVYLQMNSLKPEDTAVYYCARDRHVRWGLKMDYWGQGTQVTVSS	low polyreactivity
QVQLVESGGGLVQAGGSLRLSCAASGFTFRWYTMGWYRQAPGKEREFVAAISSSGGSTYYADSVKGRFTISRDNAKNTVYLQMKSLKPEDTAVYYCARASRGYTYEYWGQGTQVTVSS	high polyreactivity
QVQLVESGGGLVQAGGSLRLSCAASGRIFVVYAMGWYRQAPGKERELVAAITGGGRTNYADSVKGRFTISRDNAKNTVYLQMNSLKPEDTAVYYCAAGTRSDARRYYYWGQGTQVTVSS	low polyreactivity
QVQLVESGGGLVQAGGSLRLSCAASGSIFFYYAMGWYRQAPGKEREFVAHITSSDASTHYADSVKGRFTISRDNAKNTVYLQMNSLKPEDTAVYYCAADRYPGHRERDYWGQGTQVTVSS	low polyreactivity
QVQLVESGGGLVQAGCSLRLICAASGFIFPTNAMGWYRQAPGKERELVARISYGGGDTHYADSVKGRFTISRANAKTTVYLQMNSLKPEDTAVHYCAVKDGQDDYWGQGTQVTVSS	low polyreactivity
QVQLVESGGGLVHAGGSLRLSCAASGRTFRWYALGWYRQAPGKERELVAAISSSGTRTYYADSVKGRFTISRDNAKNTVYLQMNSLKPEDTAVYYCAATWRVGYDYWGQGTQVTVSS	high polyreactivity
QVQLVESGGGLVQAGGSLRLSCAASGYTFPSYALGWYRQAPGKERELVAVITIGGTYYADSVKGRFTISRDNAKNTVYLQMNSLKPEDTAVYYCAADWAWDYYRGFDYLGQGTQVTVSS	low polyreactivity
QVQLVESGGGLVQAGGSLRLSCAASGSTFARNAMGWYRQAPGKERELVAAITNAGDTNYADSVKGRFTISRDNAKNTVYLQMNSLKPEDTAVYYCAAEPILIDEYWGQGTQVTVSS	low polyreactivity
QVQLVESGGGLVQAGGSLRLICGASGLTSWYNAMGWYRQAPGKEREFVAAISFSGGRTFYADSVKGRFTISRDNAKNTVYLQMNSLKPEDTAVYYCNADVYGFDYWGQGTQVTVSS	high polyreactivity
QVQLVESWGGLVQAGGSLRLSCAASGRTFRRNAMGWYRQSPGKERELVATISSSGGRTYYADSVKGRFTISRDNAKKTVYLQMNSLKPEDTAVYYCIKALRSYPLFYFWVQGTQVTVSS	high polyreactivity
QVQLVESGGGLVQAGGSHRLSSAASARTFQDNPMGWYRQAPGKERELVAAISWRGGSTNYADSVKGRFTITRDNAKNTVYLQMNSLKPEDTAVYYCTRDRRKYGKLDYWGQGTQVTVSS	low polyreactivity
QVQLVESGGGLVQAGGSLRLSCAASGFIFIRNAMGWYRQAPGKEWELVAAISSGGRTYYADSVKGRFTISRDNAKNTVYLQMNSLKPEDTAVYYCAARVITHYGRYYYWGQGTQVTVSS	high polyreactivity

From the nanobody polyreactivity screen of Harvey et al. (2022)
